Measured values from patent US20140005119A1, “COMPOSITIONS AND METHODS FOR INHIBITING THE ACTIVITY OF P110a MUTANT PROTEINS” (Case Western Reserve University, priority 2012, published 2014).

Tests used:
p110α-p85 interaction = molecular target: T1, p110α-p85 interaction (Homo sapiens, UniProt P42336, E545K); test: Peptide competition assay in cell lysates, p110α-p85 interaction; type: binding
T1 construct: tag the endogenous WT or mutant p110α with 3×FLAG at their C termini in DLD1 cells; endogenous in cells; host or cells: DLD1 p110α E545K 3×FLAG knock-in cells
T1 sequence (P42336 whole entry E545K): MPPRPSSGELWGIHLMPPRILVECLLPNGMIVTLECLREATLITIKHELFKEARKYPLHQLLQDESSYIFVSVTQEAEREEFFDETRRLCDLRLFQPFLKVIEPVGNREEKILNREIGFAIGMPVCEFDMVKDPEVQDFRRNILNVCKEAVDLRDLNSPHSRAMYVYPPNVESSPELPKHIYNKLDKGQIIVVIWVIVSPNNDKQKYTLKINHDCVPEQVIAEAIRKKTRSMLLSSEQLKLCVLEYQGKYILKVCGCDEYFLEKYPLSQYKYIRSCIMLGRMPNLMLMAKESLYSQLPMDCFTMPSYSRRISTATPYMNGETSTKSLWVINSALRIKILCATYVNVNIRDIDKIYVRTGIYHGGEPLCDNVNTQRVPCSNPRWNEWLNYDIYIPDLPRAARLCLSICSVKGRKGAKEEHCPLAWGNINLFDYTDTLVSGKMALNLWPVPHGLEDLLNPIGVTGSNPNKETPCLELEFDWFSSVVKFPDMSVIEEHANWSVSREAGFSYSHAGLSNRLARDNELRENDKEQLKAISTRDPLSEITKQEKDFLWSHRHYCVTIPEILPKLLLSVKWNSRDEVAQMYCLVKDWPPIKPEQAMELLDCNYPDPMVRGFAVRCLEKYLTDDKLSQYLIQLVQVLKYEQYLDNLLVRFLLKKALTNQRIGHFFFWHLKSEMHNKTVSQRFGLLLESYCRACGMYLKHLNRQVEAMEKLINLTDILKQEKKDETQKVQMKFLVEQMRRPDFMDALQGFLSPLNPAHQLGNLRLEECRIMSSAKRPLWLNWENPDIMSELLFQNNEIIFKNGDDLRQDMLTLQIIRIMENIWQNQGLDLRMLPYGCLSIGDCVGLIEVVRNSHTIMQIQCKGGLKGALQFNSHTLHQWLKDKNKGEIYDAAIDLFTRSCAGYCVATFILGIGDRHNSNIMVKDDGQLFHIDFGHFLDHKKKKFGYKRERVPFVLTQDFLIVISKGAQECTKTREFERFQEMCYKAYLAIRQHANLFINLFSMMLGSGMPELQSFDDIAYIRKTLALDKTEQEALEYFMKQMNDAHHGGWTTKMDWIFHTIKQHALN
T1 sequence (P27986 whole entry partner): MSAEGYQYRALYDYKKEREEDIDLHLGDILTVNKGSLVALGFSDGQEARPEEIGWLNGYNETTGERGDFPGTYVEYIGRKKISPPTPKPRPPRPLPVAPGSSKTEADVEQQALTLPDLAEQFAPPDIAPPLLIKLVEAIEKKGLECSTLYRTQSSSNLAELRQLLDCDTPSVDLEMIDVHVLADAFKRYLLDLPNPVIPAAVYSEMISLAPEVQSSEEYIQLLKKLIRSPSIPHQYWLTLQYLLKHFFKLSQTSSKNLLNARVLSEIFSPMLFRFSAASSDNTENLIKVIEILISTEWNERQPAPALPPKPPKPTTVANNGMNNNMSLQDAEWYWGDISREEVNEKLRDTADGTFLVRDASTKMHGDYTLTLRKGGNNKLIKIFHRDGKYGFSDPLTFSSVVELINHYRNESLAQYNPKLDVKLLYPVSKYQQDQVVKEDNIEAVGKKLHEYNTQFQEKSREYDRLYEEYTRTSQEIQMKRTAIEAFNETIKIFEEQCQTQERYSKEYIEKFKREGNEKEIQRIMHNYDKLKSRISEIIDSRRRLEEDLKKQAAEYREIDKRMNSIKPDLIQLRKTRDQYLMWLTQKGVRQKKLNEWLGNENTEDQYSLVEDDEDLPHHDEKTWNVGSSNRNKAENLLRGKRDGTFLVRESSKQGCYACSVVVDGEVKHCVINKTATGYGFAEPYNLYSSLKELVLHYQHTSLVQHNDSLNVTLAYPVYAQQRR
Experimental: FIGS. 3(A-M) illustrate: (A, B) Mapping peptides (P3, SEQ ID NO: 1; P4 SEQ ID NO: 2; P5, SEQ ID NO: 3; P6, SEQ ID NO: 4) derived from mutant p110α that inhibit interaction between IRS1 and p110α E545K. The indicated peptides were added into cell lysates made from the p110α E545K 3×FLAG KI cells. Cell lysates were immunoprecipitated with beads conjugated with anti-FLAG antibodies and then blotted with anti-IRS1 antibodies. (C) Immunoblots of cell lysates made from the p110α E545K 3×FLAG KI cells. Cell lysates were immunoprecipitated with beads conjugated with anti-FLAG antibodies and then blotted with the indicated antibodies. […] (J, K) Immunoblot and graph of purified recombinant p110α E545K mutant proteins mixed with the indicated components and quantified using an in vitro lipid kinase assay. […]
(§1) For Co-immunoprecipitation (Co-IP), cells were harvested, washed with PBS, and then lysed in IP buffer (50 mMTris [pH 7.4], 150 mMNaCl, 5 mMEDTA [pH 8.0], 0.5% NP40, 1 mM PMSF, complete Protease Inhibitor Cocktail tablet [Roche]; supplemented with phosphatase inhibitors [1 mM Na3VO4, 20 mM NaF, 0.1 mM b-glycerophosphate, 20 mM sodium pyrophosphate] when necessary). […] Lysates were then cleared by centrifugation (14,000 rpm, 10 min) and protein concentration in supernatants was determined with a BCA protein assay kit (Pierce, Rockford, Ill.). […]

[1] = molecular target: T2, protein interaction between p110α Q546P and IRS1 in Vaco481 CRC cells (Homo sapiens, UniProt P35568); test: Co-IP (anti-p110α) from Vaco481 CRC cells treated with stapled mutant peptide; type: cell-based
T2 construct: endogenous in cells; host or cells: Vaco481 CRC cells
T2 sequence (P35568 1-1242): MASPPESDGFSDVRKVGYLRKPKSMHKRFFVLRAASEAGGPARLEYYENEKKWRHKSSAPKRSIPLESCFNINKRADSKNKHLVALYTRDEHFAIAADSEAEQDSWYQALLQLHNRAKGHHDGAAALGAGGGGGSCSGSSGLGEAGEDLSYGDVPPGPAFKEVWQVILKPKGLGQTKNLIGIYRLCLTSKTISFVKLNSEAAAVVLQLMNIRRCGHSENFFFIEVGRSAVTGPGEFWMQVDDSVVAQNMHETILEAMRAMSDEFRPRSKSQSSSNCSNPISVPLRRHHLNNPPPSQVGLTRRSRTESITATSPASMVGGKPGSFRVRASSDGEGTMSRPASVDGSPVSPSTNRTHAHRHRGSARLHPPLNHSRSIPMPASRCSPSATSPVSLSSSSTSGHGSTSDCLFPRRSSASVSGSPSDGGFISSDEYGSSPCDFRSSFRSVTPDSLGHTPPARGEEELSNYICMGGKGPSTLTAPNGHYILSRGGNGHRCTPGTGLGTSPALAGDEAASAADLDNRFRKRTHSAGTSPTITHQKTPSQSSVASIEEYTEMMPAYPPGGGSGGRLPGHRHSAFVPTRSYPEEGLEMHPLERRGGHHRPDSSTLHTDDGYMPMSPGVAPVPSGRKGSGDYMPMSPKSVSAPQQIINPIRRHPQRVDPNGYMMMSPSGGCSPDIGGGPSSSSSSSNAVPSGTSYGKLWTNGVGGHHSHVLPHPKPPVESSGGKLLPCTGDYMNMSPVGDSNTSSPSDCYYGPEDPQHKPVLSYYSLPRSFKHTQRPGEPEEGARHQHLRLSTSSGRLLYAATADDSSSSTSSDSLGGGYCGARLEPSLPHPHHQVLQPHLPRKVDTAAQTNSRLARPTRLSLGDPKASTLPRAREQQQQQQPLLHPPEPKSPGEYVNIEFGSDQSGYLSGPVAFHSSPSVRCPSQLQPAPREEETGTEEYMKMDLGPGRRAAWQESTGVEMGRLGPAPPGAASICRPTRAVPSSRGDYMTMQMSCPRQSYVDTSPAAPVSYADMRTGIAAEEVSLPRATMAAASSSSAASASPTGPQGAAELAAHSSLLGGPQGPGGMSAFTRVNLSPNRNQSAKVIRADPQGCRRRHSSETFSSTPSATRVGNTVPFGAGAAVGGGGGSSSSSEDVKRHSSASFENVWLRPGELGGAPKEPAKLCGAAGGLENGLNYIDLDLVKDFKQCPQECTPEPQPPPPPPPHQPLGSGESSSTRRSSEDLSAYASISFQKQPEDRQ
Experimental: FIG. 4(A-F) illustrate: (A) Schematic diagram of linear and stapled WT and mutant peptides derived from p110α (SEQ ID NOs: 5, 6, 7 and 8). (B) Immunoblots of cell lysates immunoprecipitated with beads conjugated with anti-FLAG antibodies and then blotted with the indicated antibodies. Linear or stapled WT and mutant peptide were added into culture medium of the p110α E545K 3×FLAG KI cells for 16 hr. (C) Immunoblots of cell lysates immunoprecipitated with anti-p110α antibodies and then blotted with the indicated antibodies. Vaco481 CRC cells were treated with the stapled mutant peptides at the indicated concentration. (D) Immunoblots of cell lysates blotted with the indicated antibodies. The indicated cell lines were treated with the stapled mutant peptide. (E) Immunoblots of cell lysates blotted with the indicated antibodies. […]
as §1

Substance: H2N-SEITKQEK-D^549-FLW-S^553-HRHYC-COOH [stapled mutant peptide]
- effect on p110α-p85 interaction (p110α-p85 interaction): no effects
- disruption of protein interaction between p110α Q546P and IRS1 [1]: disrupted
